Measured values taken from patent US10221404B2, “Method for modifying characteristics of a lipase” (Novozymes A/S, priority 2014, dated 2019).

Experiments:
[1] = Thermostability by Differential Scanning Calorimetry (DSC); assay type: physicochemical; settings: 50 mM HEPES, 100 mM NaCl, 1 mM CaCl2, pH8.0; heating rate 200 K/hr
Description: The thermostability of Rhizomucor miehei lipase, RmL (SEQ ID NO: 3) with or without non covalently bound native propeptide (SEQ ID NO: 4) was determined by Differential Scanning calorimetry (DSC) using a VP-Capillary Differential Scanning calorimeter (MicroCal Inc., Piscataway, N.J., USA).
The thermal denaturation temperature, Td (° C.), was taken as the top of denaturation peak (major endothermic peak) in thermograms (Cp vs. T) obtained after heating enzyme solutions in buffer (50 mM HEPES; 100 mM NaCl; 1 mM CaCl2; pH8.0) at a constant programmed heating rate of 200 K/hr. RmL without propeptide added was analyzed at a concentration of 0.42 mg/mL, where as in presence of propeptide the concentration of RmL was 0.34 mg/mL as a consequence of mixing of 440 uL enzyme solution (at 0.42 mg/mL) and 100 uL peptid solution at a concentration of 480 uM (concentration determined by amino acid analysis)
Sample- and reference-solutions (approx. 0.2 mL) were loaded into the calorimeter (reference: buffer without enzyme) from storage conditions for 3 hours (mixing) at 10° C. and thermally pre-equilibrated for approx. 20 minutes at 20° C. prior to DSC scan from 20° C. to 100° C. Denaturation temperatures were determined at an accuracy of approximately +/−1° C.

[2] = AMSA wash performance after activation with detergent and/or protease; parameters: key to No (RP) / Det (RP) / Sav (RP) / Det + Sav (RP): wash performance relative to reference lipase (Lipolase), RP ratio
Description: (§1) Washing experiments were performed using Automatic Mechanical Stress Assay (AMSA) in order to assess the wash performance in laundry. The AMSA plate has a number of slots for test solutions and a lid firmly squeezing the laundry sample, the textile to be washed against all the slot openings. During the washing time, the plate, test solutions, textile and lid were vigorously shaken to bring the test solution in contact with the textile and apply mechanical stress in a regular, periodic oscillating manner. For further description see WO02/42740 especially the paragraph “Special method embodiments” at page 23-24.
(§2) The laundry experiments were conducted in Model Detergent B, pH8. The experimental conditions are specified below:
(§3) Final adjustments to the specified pH were done with NaOH or citric acid. Water hardness was adjusted to 15° dH by addition of CaCl2 and MgCl2 (Ca^2+:Mg^2+=4:1) to the test system.
(§4) After washing the textiles were flushed in tap water and excess water was removed from the textiles using filter paper and immediately thereafter the textiles were dried at 85° C. for 5 min.
(§5) The wash performance was measured as the color change of the washed soiled textile. The soil was cream mixed with turmeric. Turmeric contains the colorant curcumin, which function as a pH indicator by having pH dependent color change. Lipase activity leads to release of free fatty acids from the cream acylglycerides and this leads to pH decrease and thereby color change of the curcumin pH indicator. Lipase wash performance can therefore be expressed as the extent of color change of light reflected-emitted from the washed soiled textile when illuminated with white light.
(§6) Color measurements were made with a professional flatbed scanner (EPSON EXPRESSION 10000XL, Atea NS, Lautrupvang 6, 2750 Ballerup, Denmark), which was used to capture an image of the washed soiled textile. To extract a value for the light intensity from the scanned images, 24-bit pixel values from the image were converted into values for red, green and blue (RGB).
(§7) Color change due to lipase activity was measured as the increase in the reflection-emitting of green light (G) relative to the sum of reflected-emitted blue (B) and red (R) light. The wash performance (RP(Wash)) of a lipase relative to a reference lipase (Lipolase™) was calculated as: RP(Wash)=(G/(B+R)(tested lipase)−G/(B+R)(no enzyme))/(G/(B+R)(lipase ref.)−G/(B+R)(no enzyme)).
Wild type RmL without or with propeptide respectively were submitted to no, detergent, protease or detergent+protease treatment prior to performance test in AMSA to test the activation level of the lipase after the treatment. […] […] Wash performance of all samples were determined by Automatic Mechanical Stress Assay (AMSA) as described above.

[3] = AMSA wash performance, specificity of inhibitory effect of propeptide
Description: as §1, §2, §3, §4, §5, §6, §7
The inhibitory specificity of the isolated propeptide was determined by mixing the isolated propeptide in a 320:1 molar ratio with 5 different lipases including the active RmL. All enzymes were diluted in 10 mM succinic acid buffer, pH6.5, to a concentration of 1.5 uM and were mixed (1:1) with purified propeptide dilutions. After 3 hours incubation at 4° C. the lipase performance of the incubated lipase-inhibitor samples were determined by Automatic Mechanical Stress Assay (AMSA) as described above. The relative wash performance “RP(wash)” is for each lipase normalized to the wash performance without inhibitor.

[4] = Hydrolytic activity, kinetic assay with p-nitrophenyl acyl esters; assay type: biochemical; settings: substrates C3, C6, C10, C12, C16 at 1 mM; 50 mM Tris pH 7.7, 0.4% TritonX-100; 405 nm for 5 minutes
Description: The hydrolytic activity of RmL with and without propeptide on various fatty acids was investigated in a kinetic assay using p-nitrophenyl acyl esters as substrate. The 100 mM stock solutions in DMSO of the substrates: p-Nitrophenyl butyrate (C3), p-Nitrophenyl caproate (C6), p-Nitrophenyl caprate (C10), p-Nitrophenyl laurate (C12) and p-Nitrophenyl palmitate (C16) (all from Sigma-Aldrich Danmark NS, Kirkebjerg Allé 84, 2605 Brondby; Cat. no.: C3:N-9876, C6: N-0502, C10: N-0252, C12: N-2002, C16: N-2752) were diluted to a final concentration of 1 mM into assay buffer (50 mM Tris; pH 7.7; 0.4% TritonX-100).
RmL with and without propeptide and appropriate controls: Buffer (negative), Lipex™ (positive) RmL with and without propeptide in 50 mM Hepes pH8.0; 10 ppm TritonX-100; 20 mM CaCl2 were added to the substrate solution in the following final concentrations: 0.01 mg/mL; 5×10^−3 mg/mL; […]; and 1.25×10^−4 mg/mL in 96-well NUNC plates (Cat. No: 260836, Kamstrupvej 90, DK-4000, Roskilde). Release of p-nitrophenol by hydrolysis of p-nitrophenyl acyl was monitored at 405 nm for 5 minutes in 10 second intervals on a Spectra max 190 (Molecular Devices GmbH, Bismarckring 39, 88400 Biberach an der Riss, GERMANY).

[5] = AMSA wash performance, propeptide dose response; settings: Model B/50 mM glycine pH 8; normalized to wash performance without inhibitor; 3 hours incubation at 4° C.
Description: as §1, §2, §3, §4, §5
Color measurements were made with a professional flatbed scanner (EPSON EXPRESSION 10000XL, Atea NS, Lautrupvang 6, 2750 Ballerup, Denmark), which was used to capture an image of the washed soiled textile. […]
as §7
The inhibitory effect of the isolated propeptide (PP) was determined by mixing isolated propeptide in molar excess with separately purified active RmL core-enzyme at increasing molar ratios of propeptide to lipase. […] After 3 hours incubation at 4° C. lipase wash performance of the incubated lipase-inhibitor samples were determined by Automatic Mechanical Stress Assay (AMSA) as described above. […]

B1: RmL: Rhizomucor miehei lipase mature protein (SEQ ID NO: 3), without propeptide (protein, listed as Rhizomucor miehei)
chain: SIDGGIRAATSQEINELTYYTTLSANSYCRTVIPGATWDCIHCDATEDLKIIKTWSTLIYDTNAMVARGDSEKTIYIVFRGSSSIRNWIADLTFVPVSYPPVSGTKVHKGFLDSYGEVQNELVATVLDQFKQYPSYKVAVTGHSLGGATALLCALDLYQREEGLSSSNLFLYTQGQPRVGDPAFANYVVSTGIPYRRTVNERDIVPHLPPAAFGFLHAGEEYWITDNSPETVQVCTSDLETSDCSNSIVPFTSVLDHLSYFGINTGLCT
[1]
  Thermostability Td at pH 8.0: 61 °C
[2]; 60 minutes in 10 mM succinic acid pH6.5
  No (RP): 1.00
[2]; 60 minutes in 1.35% (v/v) Savinase in 10 mM succinic acid pH6.5
  Sav (RP): 0.99
[2]; 60 minutes in 1.35% (v/v) Savinase in 77% (w/w) Detergent B
  Det + Sav (RP): 0.84
[2]; 60 minutes in 77% (w/w) Model detergent B
  Det (RP): 0.89
[3]; propeptide SEQ ID No: 4 in 320:1 molar ratio, 3 hours at 4° C., normalized to wash performance without inhibitor
  With inhibitor RP (wash): 0.02
[3]; without propeptide SEQ ID No: 4, normalized per lipase
  No inhibitor RP (wash): 1.00
[4]
  hydrolytic activity on p-nitrophenyl acyl esters: activity in all conditions tested
[5]
  RP (wash) Rep. 1: 1.00
  RP (wash) Rep. 2: 1.00
  RP (wash) Rep. 3: 1.00
  RP (wash) Rep. 4: 1.00
